# Results published in US8501181B2, “Compositions and methods for treating osteolytic disorders comprising MMP-14 binding proteins” (Dyax Corp., priority 2007, dated 2013).
# Key:
# Raw 264.7 cells = experiment: Osteoclastogenesis (TRAP staining) and bone resorption (pits) on osteologic slides, RANK ligand-stimulated; format: cell-based, Mouse; settings: Raw 264.7 cells + 100 ng/ml murine soluble RANK ligand, 6 days; GM6001 5, 10, 25 μM; 539A-M0240-B03 10, 50 μg/ml; 539A-M0237-D02 10, 100 μg/ml; dose-dependent; data not shown
# Description: Cells. […] Cells between passage 3-7 were used in this study.
# Materials. […] Tartrate-resistant acid phosphatase (TRAP) staining kit was obtained from KAMIYA BIOMEDICA COMPANY™, Seattle Wash. (Catalog #KT-008). GM6001 was obtained from MILLIPORE™.
# Methods. Approximately 2000 Raw 264.7 cells per slide were seeded onto osteologic multitest slides with complete growth medium. […] The slides were then incubated at 37° C. for 6 days, replacing fresh media on day 3 as described above. At the end of incubation time, one side of the slide was stained for TRAP and the other side of the slide was bleached (10% bleach), washed several times with water, and air dried. The slides were then viewed under the microscope for either multinucleated TRAP positive cells or resorbed areas (pits). Cells incubated with media only and recombinant osteoprotegerin (rH OPG) (100 ng/ml) served as negative and positive controls, respectively.
# mouse MMP-9 = mouse MMP-9 (Mus musculus, UniProt P41245); experiment: Inhibition of mouse MMP-9 activity (statement, no method given); format: biochemical
# Sequence of mouse MMP-9 (P41245 108-730): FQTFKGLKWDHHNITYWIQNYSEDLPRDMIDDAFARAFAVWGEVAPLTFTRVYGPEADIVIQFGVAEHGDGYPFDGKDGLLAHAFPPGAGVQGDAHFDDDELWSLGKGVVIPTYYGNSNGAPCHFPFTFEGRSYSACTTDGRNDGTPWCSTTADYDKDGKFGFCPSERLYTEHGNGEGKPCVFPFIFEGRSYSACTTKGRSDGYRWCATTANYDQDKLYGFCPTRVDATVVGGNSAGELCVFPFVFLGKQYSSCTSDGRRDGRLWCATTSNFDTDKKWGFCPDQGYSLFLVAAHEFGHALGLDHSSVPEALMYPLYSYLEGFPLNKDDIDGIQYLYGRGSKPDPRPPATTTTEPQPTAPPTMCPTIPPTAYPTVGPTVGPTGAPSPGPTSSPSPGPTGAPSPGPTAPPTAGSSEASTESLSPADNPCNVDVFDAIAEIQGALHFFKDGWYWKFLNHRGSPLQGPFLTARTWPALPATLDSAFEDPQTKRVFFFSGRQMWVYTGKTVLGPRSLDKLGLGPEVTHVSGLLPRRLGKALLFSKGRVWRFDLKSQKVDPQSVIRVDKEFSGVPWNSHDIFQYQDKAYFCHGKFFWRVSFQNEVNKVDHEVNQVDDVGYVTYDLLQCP
# MMP-9 [1] = biological target: T1, MMP-9 (Homo sapiens, UniProt P14780); experiment: Inhibition of human MMP-9 activity (statement, no method given); format: biochemical
# Target sequence in this assay (P14780 94-707): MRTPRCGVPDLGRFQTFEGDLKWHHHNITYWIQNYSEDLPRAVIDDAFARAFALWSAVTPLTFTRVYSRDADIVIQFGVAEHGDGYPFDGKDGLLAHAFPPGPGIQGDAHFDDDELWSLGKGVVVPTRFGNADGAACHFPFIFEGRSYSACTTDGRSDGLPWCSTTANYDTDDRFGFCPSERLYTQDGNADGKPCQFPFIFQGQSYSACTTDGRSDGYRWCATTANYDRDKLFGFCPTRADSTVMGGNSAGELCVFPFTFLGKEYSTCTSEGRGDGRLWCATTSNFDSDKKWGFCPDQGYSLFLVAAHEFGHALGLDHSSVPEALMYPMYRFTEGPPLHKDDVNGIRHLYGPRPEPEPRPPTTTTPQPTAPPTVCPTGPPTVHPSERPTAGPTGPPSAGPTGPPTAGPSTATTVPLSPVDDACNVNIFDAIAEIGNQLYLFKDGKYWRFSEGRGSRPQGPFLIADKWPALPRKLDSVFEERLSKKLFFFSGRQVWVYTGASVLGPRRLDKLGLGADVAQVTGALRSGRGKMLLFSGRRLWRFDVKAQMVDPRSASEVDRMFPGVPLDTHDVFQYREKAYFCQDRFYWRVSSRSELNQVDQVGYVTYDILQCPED
# MMP-9 [2] = biological target: T1, MMP-9; experiment: MMP-9 inhibition, selectivity (statement, no method given); format: biochemical
# Target sequence in this assay (P14780 94-707, species assumed): as the sequence (P14780 94-707) above
# MMP-14 = MMP-14 (Homo sapiens, UniProt P50281); experiment: MMP-14 inhibition (statement, no method given); format: biochemical
# [3] = system: PC-3 prostate cancer cells; experiment: PC-3 prostate cancer model, intra-tibial inoculation, osteolytic lesions; format: in vivo; settings: mice, intra-tibial PC-3 cells; 10 mg/kg Q2D for 14 days, started 3 days after inoculation; vs PBS control; X-ray and bone histomorphometric analysis
# Description: PC-3 prostate cancer cells were inoculated intra-tibially into mice. Treatment was initiated 3 days after intra-tibial inoculation of the cells. DX-2400 (10 mg/kg) and a PBS control were administered Q2D for 14 days.
effect on activity of mouse MMP-9 (mouse MMP-9),effect on activity of human MMP-9 (MMP-9 [1]),selectivity of MMP-9 inhibition (MMP-9 [2]),selectivity of MMP-14 inhibition (MMP-14),Molecule,"effect on bone resorption (number of resorbed areas, pits) (Raw 264.7 cells)",effect on osteoclastogenesis (TRAP-positive staining) (Raw 264.7 cells),reduction of the area of the osteolytic lesions [3]
–,–,–,–,"CNC(=O)[C@H](Cc1c[nH]c2ccccc12)NC(=O)[C@@H](CC(=O)NO)CC(C)C [GM6001, reference compound]",inhibitory effects,inhibitory effects,–
can decrease or inhibit the activity,can decrease or inhibit the activity,selective inhibitor of MMP-9,–,"539A-M0240-B03: exemplary MMP-9 antibody; LC CDRs SEQ ID NO: 14-16, HC CDRs SEQ ID NO: 17-19 (antibody, V domains shown) VL: QYELTQPRSVSGSPGQSVTISCTGTSSDVGGYNYVSWYQQHPGKAPKLMIYDVSKRPSGVPDRFSGSKSGNTASLTISGLQAEDEADYYCCSYAGSYTLVFGGGTKLTVL VH: EVQLLESGGGLVQPGGSLRLSCAASGFTFSTYQMVWVRQAPGKGLEWVSVIYPSGGPTVYADSVKGRFTISRDNSKNTLYLQMNSLRAEDTAVYYCARGEDYYDSSGPGAFDIWGQGTMVTVSS",inhibitory effects,inhibitory effects,–
–,–,–,selective inhibitor of MMP-14,"DX-2400: exemplary MMP-14 antibody; VH SEQ ID NO: 22, VL SEQ ID NO: 23; shares HC and LC CDRs with M0038-F01 (antibody, V domains shown, exemplary MMP-14 antibody; shares HC and LC CDRs with M0038-F01) VH: EVQLLESGGGLVQPGGSLRLSCAASGFTFSLYSMNWVRQAPGKGLEWVSSIYSSGGSTLYADSVKGRFTISRDNSKNTLYLQMNSLRAEDTAVYYCARGRAFDIWGQGTMVTVSS VL: DIQMTQSPSSLSASVGDRVTITCRASQSVGTYLNWYQQKPGKAPKLLIYATSNLRSGVPSRFSGSGSGTDFTLTISSLQPEDFATYYCQQSYSIPRFTFGPGTKVDIK",–,–,about 3 fold
